24 sequences from a protein production outcome set (Wang et al. 2014) can be followed below.

A short description of the series: label from the status in PepcDB records.
With “VMPLILLPAVDVVEGRAVRLVQGKAGSQTEYGSAVDAALGWQRDGAEWIHLVDLDAAFGRGSNHELLAEVVGKLDVQVELSGGIRDDESLAAALATGCARVNVGTAALENPQWCARVIGEHGDQVAVGLDVQIIDGEHRLRGRGWETDGGDLWDVLERLDSEGCSRFVVTDITKDGTLGGPNLDLLAGVADRTDAPVIASGGVSSLDDLRAIATLTHRGVEGAIVGKALYARRFTLPQALAAVRD”, the protein production result is “not failed”. For “VNATQRKLLMQLVIGAAWVDGDLDQPERQYLQTLLERQKLDHDPDLLVLLETPIGLPQLEAWLVTFLQGTSTPTRLAALATIANLLMADGVVNRSEHSLLDEIHSLMAQIPASRDEEEYRQAAPGLVQGLSGLVRRALNGAKHLFQ”, the protein production entry is given as “not failed”.

On to “VPMNIKGLFEVAVKVKNLEKSSQFYTEILGFEAGLLDSARRWNFLWVSGRAGMVVLQEEKENWQQQHFSFRVEKSEIEPLKKALESKGVSVHGPVNLEWMQAVSLYFADPNGHALEFTAL”, for which the protein production result was “not failed”. The same measure for “VRHTVKIDKDTLLQDYGFHISESLPLTVVAVTAGGSAHGKLFPGDQILQMNNEPAEDLSWERAVDILREAEDSLSITVVRCTS”: “not failed”; for “VTATQLAAKATTLYYLHKQAMTDEVSLLLEQALQLEPYNEAALSLIANDHFISFRFQEAIDTWVLLLDSNDPNLDRVTIIESINKAKKLM”: “not failed”. With “VTPEQLQHHRFVLESVNGKPVTSDKNPPEISFGEKMMISGSMCNRFSGEGKLSNGELTAKGLAMTRMMCANPQLNELDNTISEMLKEGAQVDLTANQLTLATAKQTLTYKLADLMN”, the protein production result is on record as “not failed”.

On to “VTPQGLRIVLQDDYKQHMFSRGGAELTPFFEDLLLALAPLFEQVTNPLIISGHTDAIPFKKRFGRQSNWALSASRADVARKTLVEGGMPDDRVMQVTGMSDRALLNPDEPDSSENRRIELFILTTP”, for which the protein production result is “failed”. As to “VTTVGFDVAARLGTLLTAMVTPFSGDGSLDTATAARLANHLVDQGCDGLVVSGTTGESPTTTDGEKIELLRAVLEAVGDRARVIAGAGTYDTAHSIRLAKACAAEGAHGLLVVTPYYSKPPQRGLQAHFTAVADATELPMLLYDIPGRSAVPIEPDTIRALASHPNIVGVKDAKADLHSGAQIMADTGLAYYSGDDALNLPWLAMGATGFISVIAHLAAGQLRELLSAFGSGDIATARKINIAVAPLCNAMSRLGGVTLSKAGLRLQGIDVGDPRLPQVAATPEQIDALAADMRAASVLR”, the protein production entry is recorded as “not failed”.

On to “VWICTKCVRCKSCGSTTPGKGWDAQWSHDFSLCHDCAKLFAKGNFCPLCDKCYDDDDYESKMMQCGKCDRWVHSKCENLSDEMYEILSNLPESVAYTCVNCTERHPAEWRLALEKELQISLKQVLTALLNSRTTSHLLRYRQAAKPPDLNPETEESIPSRSSPEGPDPPVLTEVSKQDDQQPLDLEGVKRKMDQGNYTSVLEFSDDIVKIIQAAINSDGGQPEIKKANSMVKSFFIRQMERVFPWFSVKKSRFWEPNKVSSNSGMLPNAVLPPSLDHNYAQWQEREENSHTEQ”, for which the protein production entry is listed as “failed”. With “VWRQYASRALQELGAGKRAIHDVADLTRGSLRIAVTPTFTSYFIGPLMADFYARYPSITLQLQEMSQEKIEDMLCRDELDVGIAFAPVHSPELEAIPLLTESLALVVAQHHPLAVHEQVALSRLHDEKLVLLSAEFATREQIDHYCEKAGLHPQVVIEANSISAVLELIRRTSLSTLLPAAIATQHDGLKAISLAPPLLERTAVLLRRKNSWQTAAAKAFLHMALDKCAVVGGNESR”, the protein production result is on record as “not failed”. Then “VYLDFENHIKEIQNEIELALIRGDEDAKEILEKRLDKEVKSIYSNLTDFQKLQLARHPDRPYAMDYIDLILKDKYEVFGDRHYNDDKAIVCFVGKIDNVPVVVIGEEKGRGTKNKLLRNFGMPNPCGYRKALKMAKFAEKFNL”, with “failed”. Then “WLDLAPSTQVDTETSINVLSDIEFTLNGIYSTMQSSDAYSGRLVYYGDVTGDDMQAVSSTKRTGNYYRFNFTKDNGPSSHWSYLYSIIQNCNLILMNVDKLSIDEDETEYKNDLKGQALAIRGMALFDLTRIFGYPYLKDNGASLGVPIVKELSTIDSKPARNTVAECYTEIISDLKNSTELLSGDFNKGKVNRWAAMTLLSRVYLYKGEYNEALTMAENAIKGAEKEGYALWTNEEYPTAWGNDASASNPGEILFEIVNLTTDSPGKESMGYLNSYNGYDDMCITCSFYQLLKKDPKDVRLKILSFDKKYYAYVNKYQPQQGENITDANIPLIRLSEAYLNAAEAAVQTGDNAKAVKYLNSIVQRANPENSVEGKTLTLENVLDERRKELVAEGHRMYDVIRNGMTVKRIDVKDSDINKTKHNTAYMEYDWNFHKILLPIPKKEMDANPNMKQNPGYVD”, with “not failed”; and “WQPATERLQVTYLGKVSTTGMQFLSGCTEKPVIELWKKHTLAREDVFPANALLEIRPFQVWLHHLDHKGEATVHMDTFQVARIAYCTADHNVSPNIFAWVYREINDDLSYQMDCHAVECESKLEAKKLAHAMMEAFRKTFHSMKSDGRIH”, with “failed”; and “WRRLVEEAARRDPDDVRLLVHVASDVWNFVDEHCTLVADAYRHVERQLAWRRENRLRLMTTALLDGTTRIADLPDVATALDLPEQGRYAVVSVAVAHPAGHVGTQLLSVPPGMRALWHTGTDVEHGIVHLGEREPKDLVDRVTVPIGARVGISRAVDGLAAVGDARRLAETALRACPESGGTVLLDEHLPAALLVSAPALGTALVNRVLGPLLSLDPSDRDLLLDTVSAWLDNDGSAQRAASRLYCHRNTVLNRLRRFEQLTGRCLTRPADVVDTSLALTARRL”, with “failed”. Consider “WRTIFNAEPECVMIVATDGTLLDINPAGVAAIEADSVGAVIGKRVYSLVVPECQQAFRQLNESVCQGKQGTLEFEIITCRGNRRWMATHAVPVRNEKDGNLVQLSI”, for which the protein production entry is recorded as “failed”. As for “WSLQPLADMSAAEFRDWQVLLENRTGVVLNEQRRTFLQASLTARMRELGIGDYHSYYRQVTDGPRGAVEWATLLDRLTVQETRFFRHPPSFELLERYLGERLRREGMPRPWALWSVGCSSGEEPYSLAMCAAQVLRGQEREDFFGVTGTDISLHALQRARQANYPARKLEQLEAGLVERYCERQADGSFSVKTILTERVCCARLNVLDLAKAPWSGMDVIFCQNLLIYFRRWRRREILNRLAERLAPGGLLVIGVGEVVDWSHPELEPVADERVL”, the protein production result is on record as “failed”.

For “WSYEHLHLTNRIKLLYAPTFRDNELGMAKLHLDIAEMKQALGNEYQLILKLHPSISNDLEKLDDDFVIYVDKETPIETLLPVVDILITDYSSIPFEFALLQKPMIFFTYDLTEYNNARGLSDGFLETIPGPHVFTTTELIEVIQNNTFDLEKVRLFAEKWNKYSDGFSSERFVSFLKEQLEK”, the protein production result is “failed”. The same measure for “YANEEKGLEIAQERKARDEGWGDSIATMEMILKNAQGESSTRLMRLKSLEVEGDGDKGLTIFDQPRDVTGTAFLNHSHTIGADDQWLYLPALKRVKRISSRNKSGPFMGSEFAYEDLSSFEIEKYRFNHLKDEKFNGQDVFVLEQIPTDKNSGYTKQVVWLDKAHYRPLKVEFYDRKGALLKTLTFANYKQYLDKYWRAHTMAMTNHQTGKSTELNTSDLRFQTGLEENDFNKNVLKRVK”: “failed”.

In the case of “YETIIIHRHQRPDPDAIGSQVGLAELLRASFPEKNIYQVGGPVEGLEFLAEMDVITDDVYRGALVIVTDTANAPRISDARFSLGDQLIKIDHHPNDEPYGDLVWVNTNASSCSEIIVDFWQQHLAELTMTDNAARLLYAGIVGDTGRFLYPSTSAHTLAVAAQLRTFNFNAADLNRELDQMP”, the protein production entry is “not failed”.

For the sequence “YHDETAQDEEDRVLIHFNVRDIKIGPECHDVQPPEGRSRDGLLTVNLREGGRLHLCAETKDDALAWKTALLEANSTPVRVYSPYQDYYEVVPPNAHEATYVRSYYGPPYAGPGVTHVIVREDPCYSAGAPLAMGMLAGAATGAALGSLMWSPCWF”, the protein production entry is recorded as “failed”. Then “YKGKNLIMIQVEALQQFVINSKVENQEITPNLNRWINKSLYFNNFFYQVSSGNTSDAEFLANNSFYPAASGAAYYLYAGNTYSSLAKEMNDNNYYTAVLHGYKEGFWNRNVMYKAEKFKDFFGEKSFNINENVGLGLSDKSFLNQSFNKLKSFSSPYYSFIITLSSHYPYDDTKGYGDFNVGDYEGTLLGNYLKGIHYTDAQLGTFLDKLEKSGIMDNSVVILYGDHYAIPKDKINDLYDFENIKNPTDLDWYELQKVPMLIHFPKDQYKGINSEYSGQIDLYPTIANMFNLPQNYMLGTDLFASKNRNVIFRNGSFTDGNVFYVSWTNTYYDIKTGS”, with “failed”. Then “YRYDEQLNLCLERLSSGKDKNKSVLQNKYVRCSVRAEVRHLRRVLCHRLMLNPQHVQLLFDNEVLPDHMTMKQIWLSRWFGKPSPLLLQYS”, with “failed”; and “YSGSQAPGGIQEIVAMSPELDTYSITKRVKEVLTDNNLGQRLFGESILGLTQGSVSDLLSRPKPWHKLSLKGREPFVRMQLWLNDPHNVEKLRDMKKL”, with “not failed”.

“YTEPQIDDTNDGIVFSELTHPLIADAVANDFSLSQNILLTGSNASGKSTFMKSIAINIILASAIQTVTASKFVYQPGIVFTSMANADDVLSGDSYFMAELKSIKRIVEIPDNQKIYCFIDEIFKGTNTTERIAASESVLSFLHEKSNFRVIAATHDIELAELLKQRYENYHFNEVIENNNIHFDYKIKPGKANTRNAIELLKITSFPAKIYERAKDNVSN”: the protein production entry was “failed”.
